B1: YLR303W: GST fusion yeast protein on proteome chip (protein, UniProt P06106 2-444, looked up)
Homocysteine/cysteine synthase: PSHFDTVQLHAGQENPGDNAHRSRAVPIYATTSYVFENSKHGSQLFGLEVPGYVYSRFQNPTSNVLEERIAALEGGAAALAVSSGQAAQTLAIQGLAHTGDNIVSTSYLYGGTYNQFKISFKRFGIEARFVEGDNPEEFEKVFDERTKAVYLETIGNPKYNVPDFEKIVAIAHKHGIPVVVDNTFGAGGYFCQPIKYGADIVTHSATKWIGGHGTTIGGIIVDSGKFPWKDYPEKFPQFSQPAEGYHGTIYNEAYGNLAYIVHVRTELLRDLGPLMNPFASFLLLQGVETLSLRAERHGENALKLAKWLEQSPYVSWVSYPGLASHSHHENAKKYLSNGFGGVLSFGVKDLPNADKETDPFKLSGAQVVDNLKLASNLANVGDAKTLVIAPYFTTHKQLNDKEKLASGVTKDLIRVSVGIEFIDDIIADFQQSFETVFAGQKP
modifications: GST tag
notes: GST fusion yeast protein on proteome chip
B2: YBL024W: GST fusion yeast protein on proteome chip (protein, UniProt P38205 1-684, looked up)
Multisite-specific …: MARRKNFKKGNKKTFGARDDSRAQKNWSELVKENEKWEKYYKTLALFPEDQWEEFKKTCQAPLPLTFRITGSRKHAGEVLNLFKERHLPNLTNVEFEGEKIKAPVELPWYPDHLAWQLDVPKTVIRKNEQFAKTQRFLVVENAVGNISRQEAVSMIPPIVLEVKPHHTVLDMCAAPGSKTAQLIEALHKDTDEPSGFVVANDADARRSHMLVHQLKRLNSANLMVVNHDAQFFPRIRLHGNSNNKNDVLKFDRILCDVPCSGDGTMRKNVNVWKDWNTQAGLGLHAVQLNILNRGLHLLKNNGRLVYSTCSLNPIENEAVVAEALRKWGDKIRLVNCDDKLPGLIRSKGVSKWPVYDRNLTEKTKGDEGTLDSFFSPSEEEASKFNLQNCMRVYPHQQNTGGFFITVFEKVEDSTEAATEKLSSETPALESEGPQTKKIKVEEVQKKERLPRDANEEPFVFVDPQHEALKVCWDFYGIDNIFDRNTCLVRNATGEPTRVVYTVCPALKDVIQANDDRLKIIYSGVKLFVSQRSDIECSWRIQSESLPIMKHHMKSNRIVEANLEMLKHLLIESFPNFDDIRSKNIDNDFVEKMTKLSSGCAFIDVSRNDPAKENLFLPVWKGNKCINLMVCKEDTHELLYRIFGIDANAKATPSAEEKEKEKETTESPAETTTGTSTEAPSAAN
modifications: GST tag
notes: as for B1
B3: YLR007W: GST fusion yeast protein on proteome chip (protein, UniProt Q07913 1-336, looked up)
Non-structural maintenance of …: MEVHEEQVSAPVTGDATAKYLLQYILSARGICHENALILALMRLETDASTLNTEWSIQQWVDKLNDYINAINVKLNLLGYKIIRINHGIGRNAVTLKAKQNFESFEDNTAIRAHNNDYAVLQSIVLPESNRFFVYVNLASTEETKLATRFNQNEIEFMKWAIEQFMISGETIVEGPALETSIIVKEVNRILVAATGDSNLAKWRKFSTFTVGSTNLFQFQELTATDIEDLLLRLCELKWFYRTQEGKFGIDLRCIAELEEYLTSMYNLNTCQNCHKLAIQGVRCGNESCREENEETGENSLSQIWHVDCFKHYITHVSKNCDRCGSSLITEGVYVI
modifications: GST tag
notes: as for B1

What follows are molecules tested against T1, FHHDbf2-H6Mob1TM9 (Saccharomyces cerevisiae, UniProt P22204+P40484) (assay: Yeast proteome chip assay). Details: Table 3; GST fusion proteins on proteome chip, [γ-33P]ATP, chips in duplicate, computer analysis.
T1 construct: made in house; host or cells: Hi5 insect cells (baculovirus)
T1 sequence (P22204 1-572): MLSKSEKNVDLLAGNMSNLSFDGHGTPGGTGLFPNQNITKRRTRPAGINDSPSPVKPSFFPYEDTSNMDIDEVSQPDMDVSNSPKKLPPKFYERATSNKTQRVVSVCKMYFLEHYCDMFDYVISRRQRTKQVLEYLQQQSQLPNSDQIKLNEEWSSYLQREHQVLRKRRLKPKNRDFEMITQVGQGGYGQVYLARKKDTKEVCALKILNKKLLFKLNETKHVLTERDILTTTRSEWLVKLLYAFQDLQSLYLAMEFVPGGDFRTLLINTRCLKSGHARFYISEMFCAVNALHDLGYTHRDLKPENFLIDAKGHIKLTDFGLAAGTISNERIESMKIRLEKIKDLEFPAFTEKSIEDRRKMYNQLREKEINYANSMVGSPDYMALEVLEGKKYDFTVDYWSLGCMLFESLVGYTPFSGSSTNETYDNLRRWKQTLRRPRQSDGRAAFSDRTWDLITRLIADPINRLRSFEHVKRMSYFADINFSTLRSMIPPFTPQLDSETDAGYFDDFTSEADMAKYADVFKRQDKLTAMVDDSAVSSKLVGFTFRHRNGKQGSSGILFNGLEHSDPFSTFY
T1 sequence (P40484 1-314 partner): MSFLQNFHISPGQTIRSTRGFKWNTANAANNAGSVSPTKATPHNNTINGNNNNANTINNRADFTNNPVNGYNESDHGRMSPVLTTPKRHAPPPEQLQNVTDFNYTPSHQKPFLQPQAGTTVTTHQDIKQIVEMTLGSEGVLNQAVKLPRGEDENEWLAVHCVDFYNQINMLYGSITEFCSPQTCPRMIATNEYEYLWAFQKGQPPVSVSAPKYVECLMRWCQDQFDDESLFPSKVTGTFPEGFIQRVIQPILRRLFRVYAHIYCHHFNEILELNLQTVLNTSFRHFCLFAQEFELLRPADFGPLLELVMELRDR
Format: biochemical
How it was run: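 GST-tagged yeast proteins (~4,400 strains) spotted on proteome microarrays, probed in duplicate with FHHDbf2-H6Mob1TM9 in DKB plus [γ-33P]ATP; kinase-dead Dbf2(N305A) and kinase-free buffer served as controls. Positives: 3 of 4 spots ≥2 SD above background, fourth ≥1.5 SD.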

Row | Molecule | Slide Signal (after normalization)
1 | B1 | 0.0985
2 | B2 | 0.1294
3 | B3 | 0.0988
